# Assay results published in US20180360946A1 (ALBERT EINSTEIN COLLEGE OF MEDICINE, published 2018).
# B1: WT DENV2 EDIII (other)
# chain: GMSYSMCTGKFKIVKEIAETQHGTIVIRVQYEGDGSPCKIPFEIMDLEKRHVLGRLITVNPIVTEKDSPVNIEAEPPFGDSYIIIGVEPGQLKLNWFKKGSSIGQ
# notes: also called WT DENV2 DIII; DENV2 EDIII WT
# Assays:
# mAb 3H5-1 = target: T1, mAb 3H5-1; test: ELISA
# T1 construct: also called prototypic FG-loop mAb 3H5-1
# murine mAb 4E11 [1] = test: ELISA
# mAb 2H12 [2] = target: T2, mAb 2H12; test: ELISA
# T2 construct: also called prototypic AB-loop mAb 2H12
# murine mAb 4E11 [3] = test: biolayer interferometry
# mAb 2H12 [4] = target: T2, mAb 2H12; test: biolayer interferometry
# murine mAb 4E11 [5] = test: ELISA, purified DIII
# mAb 2H12 [6] = target: T2, mAb 2H12; test: ELISA, purified DIII
# murine mAb 4E11 [7] = test: phage ELISA, phage-displayed DIII titrated on immobilized 4E11; design: unit not given here
binder,measurement,setting,value
B1,EC50,mAb 3H5-1,~2000 µM
same,EC50,murine mAb 4E11 [1],0.002 µM
same,EC50,mAb 2H12 [2],0.0003 µM
same,Kd,murine mAb 4E11 [3],~4 pM
same,Kd,mAb 2H12 [4],0.03 nM
same,EC50,murine mAb 4E11 [5],0.0024 µM
same,EC50,mAb 2H12 [6],0.00032 µM
same,EC50 (read off the curve),murine mAb 4E11 [7],~5e+08
